In patent publication US12291504B2, “Small molecule inhibition of sulfotransferase SULT1A3” (University of Pittsburgh—Of the Commonwealth System of …, priority 2018, dated 2025) one finds Km and kcat data, which are given here for one protein.

Substrate in the series: Oc1ccc2ccc3cccc4ccc1c2c34
The experiment in a line: SULT1A3 inhibition studies, 1-HP initial-rate fluorescence assay. In kind it is biochemical, human. The note with it: other: WT enzyme; saturating PAPS (500 μM, 17 × Km); pH 7.5; 25.0 °C. As for the experimental part: The initial rates of SULT catalyzed 1-HP sulfonation are plotted as a function of inhibitor concentration, and are normalized relative to [inhibitor]=0. Enzyme activity was monitored by the sulfonation dependent change in 1-HP fluorescence (λex=325 nm, λem=370 nm). Less than 5% of the concentration-limiting substrate converted at the reaction endpoint was consumed during initial-rate measurements. Each point is the average of three independent determinations. Conditions: SULT (20 nM, active sites), PAPS (0.50 mM, 17×Km), 1-HP (5.0 μM, 61×Km), KPO4 (50 mM), pH 7.5, 25±2° C.
Initial-Rate Studies. Initial-rate parameters for the labeled or mutant SULT1A3 constructs were determined using a previously described 1-HP assay (25). […] Reactions were monitored via fluorescence change associated with the conversion of 1-HP to 1-HP-S (λex=325 nm, λem=370 nm). […] Reaction progress curves were analyzed to obtain initial-rate parameters as described previously (26,27). […]
Initial-Rate Studies. Initial-rate parameters for the labeled or mutant SULT1A3 constructs were determined using a previously described 1-HP assay (47). […] Reactions were monitored via fluorescence change associated with the conversion of 1-HP to 1-HP-S (λex=325 nm, λem=370 nm). […] Reaction progress curves were analyzed to obtain initial-rate parameters as described previously (48,49). […]

What is called kcat is the maximal rate divided by the concentration of active sites.

B1: SULT1A3 (Homo sapiens) (protein)
chain: MELIQDTSRPPLEYVKGVPLIKYFAEALGPLQSFQARPDDLLINTYPKSGTTWVSQILDMIYQGGDLEKCNRAPIYVRVPFLEVNDPGEPSGLETLKDTPPPRLIKSHLPLALLPQTLLDQKVKVVYVARNPKDVAVSYYHFHRMEKAHPEPGTWDSFLEKFMAGEVSYGSWYQHVQEWWELSRTHPVLYLFYEDMKENPKREIQKILEFVGRSLPEETMDFMVQHTSFKEMKKNPMTNYTTVPQELMDHSISPFMRKGMAGDWKTTFTVAQNERFDADYAEKMAGCSLSFRSEL
notes: Wild-type and mutant SULT1A3 coding regions were inserted into a pGEX-6P expression vector; N-His/GST/MBP triple-tag (N, cleaved yes); made in house; host or cells: E. coli BL21(DE3)
B1: the Km is on record as 82 (3) nM and the kcat turned out to be 2 s⁻¹.
